Data as given in patent US20150320848A1.

Legend:
Assay in all cases: REVEAL MHC-peptide binding assay; score relative to positive control
HLA-DR5 = molecular target: HLA-DR5
HLA-DR4 = molecular target: HLA-DR4
HLA-DR1 = molecular target: HLA-DR1
HLA-DR7 = molecular target: HLA-DR7
HLA-DR2 = molecular target: HLA-DR2

| binding score (% compared to the positive control) (HLA-DR5) | binding score (% compared to the positive control) (HLA-DR4) | binding score (% compared to the positive control) (HLA-DR1) | binding score (% compared to the positive control) (HLA-DR7) | binding score (% compared to the positive control) (HLA-DR2) | Binder |
| --- | --- | --- | --- | --- | --- |
| > 15% | > 15% | – | – | – | FEGQFSINKVPGNFHVS [ERGIC1-001] |
| – | > 15% | > 15% | > 15% | > 15% | GNQLFRINEANQLMQ [GALNT7-001] |
